According to article PMC8020760, “Assembly of a dsRNA synthesizing complex: RNA-DEPENDENT RNA POLYMERASE 2 contacts the largest subunit of NUCLEAR RNA POLYMERASE IV” (Proceedings of the National Academy of Sciences of the …, 2021):

Assays:
[1] = biological target: T1, NRPD1-FLAG of plant Pol IV, as the band of about 165 kDa resolved by SDS-PAGE (A. thaliana, UniProt Q9LQ02 1-1453); assay: far-Western, overlay or dot blot; far-Western: affinity-purified FLAG-tagged Pol II, Pol IV and Pol V resolved by SDS-PAGE, electroblotted to nitrocellulose, incubated with recombinant V5-tagged RDR2, detected with anti-V5-HRP; conditions: both partners purified
T1 construct: NRPD1, largest catalytic subunit of Pol IV, A. thaliana; full-length NRPD1 is 1,453 amino acids; The band is assigned to NRPD1 by its size only; also called largest Pol IV subunit
T1 sequence (looked up): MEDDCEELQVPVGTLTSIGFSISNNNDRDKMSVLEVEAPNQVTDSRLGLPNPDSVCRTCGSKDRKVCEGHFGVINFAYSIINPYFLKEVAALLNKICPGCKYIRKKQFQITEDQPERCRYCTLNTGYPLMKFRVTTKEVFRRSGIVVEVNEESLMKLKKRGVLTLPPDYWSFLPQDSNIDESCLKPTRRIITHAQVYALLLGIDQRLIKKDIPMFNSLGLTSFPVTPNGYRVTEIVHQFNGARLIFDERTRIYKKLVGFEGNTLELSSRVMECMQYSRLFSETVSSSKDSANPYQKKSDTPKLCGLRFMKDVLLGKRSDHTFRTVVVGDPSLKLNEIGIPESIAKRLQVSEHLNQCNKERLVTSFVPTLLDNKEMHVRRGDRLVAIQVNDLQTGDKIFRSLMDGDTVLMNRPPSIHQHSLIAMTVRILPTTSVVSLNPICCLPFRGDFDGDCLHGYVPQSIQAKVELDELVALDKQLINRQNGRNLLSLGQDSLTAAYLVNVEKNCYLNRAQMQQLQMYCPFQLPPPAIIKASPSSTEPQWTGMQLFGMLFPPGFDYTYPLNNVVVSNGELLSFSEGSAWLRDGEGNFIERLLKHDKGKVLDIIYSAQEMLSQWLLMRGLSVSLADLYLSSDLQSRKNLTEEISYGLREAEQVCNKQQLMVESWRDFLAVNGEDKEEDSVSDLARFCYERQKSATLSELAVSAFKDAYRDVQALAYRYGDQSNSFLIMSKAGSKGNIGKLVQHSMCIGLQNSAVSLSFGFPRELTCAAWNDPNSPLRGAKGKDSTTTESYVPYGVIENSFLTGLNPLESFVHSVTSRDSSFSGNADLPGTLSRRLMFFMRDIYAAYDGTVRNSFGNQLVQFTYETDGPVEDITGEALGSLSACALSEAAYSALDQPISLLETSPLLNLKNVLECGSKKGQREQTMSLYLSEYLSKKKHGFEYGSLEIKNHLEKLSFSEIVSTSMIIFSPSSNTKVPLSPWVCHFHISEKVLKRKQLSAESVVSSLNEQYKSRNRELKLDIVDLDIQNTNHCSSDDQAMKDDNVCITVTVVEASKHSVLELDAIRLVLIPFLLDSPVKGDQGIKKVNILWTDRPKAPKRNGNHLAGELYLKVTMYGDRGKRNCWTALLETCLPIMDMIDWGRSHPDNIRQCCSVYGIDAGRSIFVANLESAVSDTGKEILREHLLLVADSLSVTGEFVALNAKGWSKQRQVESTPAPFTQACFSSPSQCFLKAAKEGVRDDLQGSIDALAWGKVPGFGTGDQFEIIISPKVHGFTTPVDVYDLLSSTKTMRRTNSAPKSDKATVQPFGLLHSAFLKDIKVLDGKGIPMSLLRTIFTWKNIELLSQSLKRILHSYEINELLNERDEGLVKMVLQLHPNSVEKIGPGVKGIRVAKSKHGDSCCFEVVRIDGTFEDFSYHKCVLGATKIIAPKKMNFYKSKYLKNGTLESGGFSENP

[2] = biological target: T2, recombinant NRPD1 fused at its C terminus to a FLAG epitope tag (A. thaliana, UniProt Q9LQ02 1-1453); assay: co-IP; purified recombinant proteins, 0.25 µM each, 30 min, room temperature, 50 mM Hepes-KOH pH 7.5, 150 mM NaCl; IP with resin against the tag of one or the other partner (anti-FLAG, anti-V5 or anti-HA); immunoblot; conditions: both partners purified
T2 construct: NRPD1 open reading frame, A. thaliana, codon optimized synthetic gene; full-length NRPD1 is 1,453 amino acids; More in SI Appendix, Methods; also called FLAG-tagged NRPD1; not shown: FLAG, C-terminal, kept
T2 sequence (looked up): T1 sequence (looked up)

B1: recombinant RNA-DEPENDENT RNA POLYMERASE 2 (RDR2), wild type, with N-terminal V5 epitope and 6xHis tags (enzyme, A. thaliana, UniProt O82504 1-1133, looked up)
chain: MVSETTTNRSTVKISNVPQTIVADELLRFLELHLGEDTVFALEIPTTRDNWKPRDFARVQFTTLEVKSRAQLLSSQSKLLFKTHNLRLSEAYDDIIPRPVDPRKRLDDIVLTVGFPESDEKRFCALEKWDGVRCWILTEKRRVEFWVWESGDCYKIEVRFEDIIETLSCCVNGDASEIDAFLLKLKYGPKVFKRVTVHIATKFKSDRYRFCKEDFDFMWIRTTDFSGSKSIGTSTCFCLEVHNGSTMLDIFSGLPYYREDTLSLTYVDGKTFASAAQIVPLLNAAILGLEFPYEILFQLNALVHAQKISLFAASDMELIKILRGMSLETALVILKKLHQQSSICYDPVFFVKTQMQSVVKKMKHSPASAYKRLTEQNIMSCQRAYVTPSKIYLLGPELETANYVVKNFAEHVSDFMRVTFVEEDWSKLPANALSVNSKEGYFVKPSRTNIYNRVLSILGEGITVGPKRFEFLAFSASQLRGNSVWMFASNEKVKAEDIREWMGCFRKIRSISKCAARMGQLFSASRQTLIVRAQDVEQIPDIEVTTDGADYCFSDGIGKISLAFAKQVAQKCGLSHVPSAFQIRYGGYKGVIAVDRSSFRKLSLRDSMLKFDSNNRMLNVTRWTESMPCFLNREIICLLSTLGIEDAMFEAMQAVHLSMLGNMLEDRDAALNVLQKLSGENSKNLLVKMLLQGYAPSSEPYLSMMLRVHHESQLSELKSRCRILVPKGRILIGCMDEMGILEYGQVYVRVTLTKAELKSRDQSYFRKIDEETSVVIGKVVVTKNPCLHPGDIRVLDAIYEVHFEEKGYLDCIIFPQKGERPHPNECSGGDLDGDQFFVSWDEKIIPSEMDPPMDYAGSRPRLMDHDVTLEEIHKFFVDYMISDTLGVISTAHLVHADRDPEKARSQKCLELANLHSRAVDFAKTGAPAEMPYALKPREFPDFLERFEKPTYISESVFGKLYRAVKSSLAQRKPEAESEDTVAYDVTLEEAGFESFIETAKAHRDMYGEKLTSLMIYYGAANEEEILTGILKTKEMYLARDNRRYGDMKDRITLSVKDLHKEAMGWFEKSCEDEQQKKKLASAWYYVTYNPNHRDEKLTFLSFPWIVGDVLLDIKAENAQRQSVEEKTSGLVSI
Question: Does B1 bind [1]?
Answer: binds

Question: Does B1 bind [2]?
Answer: binds
